This passage reports ka, kd and IC50 results from patent US20100092465A1, “TREATMENT OF GRAFT-VERSUS-HOST DISEASE” (priority 2006, published 2010).

Test [1] has as its target T1, human ligand (single-chain IL27) (Homo sapiens, UniProt Q14213+Q8NEV9).
T1 construct: amino-terminal peptide tag (N)
T1 sequence (Q14213+Q8NEV9 with tags, fused parts or gaps): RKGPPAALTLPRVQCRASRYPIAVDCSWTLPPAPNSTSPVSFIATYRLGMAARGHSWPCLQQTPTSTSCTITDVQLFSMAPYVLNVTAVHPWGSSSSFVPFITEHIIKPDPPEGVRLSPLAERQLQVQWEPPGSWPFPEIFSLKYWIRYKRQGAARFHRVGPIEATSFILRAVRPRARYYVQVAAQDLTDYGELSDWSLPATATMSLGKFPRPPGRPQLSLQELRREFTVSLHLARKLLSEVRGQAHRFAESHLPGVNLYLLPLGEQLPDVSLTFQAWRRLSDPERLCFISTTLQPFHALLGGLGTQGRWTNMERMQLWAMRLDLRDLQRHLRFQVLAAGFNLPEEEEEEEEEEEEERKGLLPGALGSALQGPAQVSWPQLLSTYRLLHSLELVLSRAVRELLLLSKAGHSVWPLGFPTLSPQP
The test can be described thus: SPR kinetics of soluble receptor with human IL27 ligand. The following applies: binding with human ligand; gp130 not included. The protocol:
Kinetic rate and affinity constant values for the mouse (IL27RAm(mFc1), Example 3) and human (IL27RA-Fc5, Example 4) soluble receptors were obtained by surface plasmon resonance (SPR) using an automated instrument (BIACORE 3000; Biacore International AB, Uppsala, Sweden). The mouse soluble receptor was tested against mouse ligand (lot A1418F), and the human soluble receptor was tested against both mouse (A1426F) and human (A1534F) ligands. For determination of the kinetic rate constants for the receptor-ligand interactions, the gp130 molecule was not included as part of the receptor complex.
The IL27 ligands used in this study were single-chain molecules comprising EBI3 connected by its C-terminus to the N-terminus of IL-27 p28 via a polypeptide linker. Each of the ligands included an amino-terminal peptide tag.
For the mouse IL27RA study, the soluble receptor was captured onto the chip surface by an isotype-specific anti-mouse Fc antibody (obtained from Jackson ImmunoResearch Laboratories, Inc., West Grove, Pa.) covalently immobilized to the chip (BIACORE CM5 chip) using the standard amine coupling protocol specified by the instrument manufacturer. […]
All data were assessed using software provided with the instrument (BIACORE Evaluation software v. 3.2). […]

For the next test, the target named is T2, muIL-27 (Mus musculus, UniProt O35228+Q8K3I6).
T2 sequence (O35228 19-228): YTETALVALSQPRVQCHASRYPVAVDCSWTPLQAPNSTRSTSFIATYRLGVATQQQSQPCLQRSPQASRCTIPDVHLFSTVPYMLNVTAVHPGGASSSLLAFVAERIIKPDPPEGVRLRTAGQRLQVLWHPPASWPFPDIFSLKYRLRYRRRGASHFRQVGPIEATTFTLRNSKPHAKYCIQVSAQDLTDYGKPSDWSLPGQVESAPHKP
T2 sequence (Q8K3I6 29-234): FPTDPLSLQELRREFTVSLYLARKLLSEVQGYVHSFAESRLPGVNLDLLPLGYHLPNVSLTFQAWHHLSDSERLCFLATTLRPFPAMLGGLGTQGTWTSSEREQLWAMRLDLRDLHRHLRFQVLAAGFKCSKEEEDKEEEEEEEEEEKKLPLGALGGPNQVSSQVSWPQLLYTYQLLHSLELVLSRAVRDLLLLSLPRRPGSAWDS
The test can be described thus: Phospho-STAT3 neutralization assay, total human PBMCs, muIL-27. The format is cell-based. The following applies: ligand muIL-27 at EC90. The text has this: Whole mouse spleens were harvested from C57 B1/6 mice and washed two times with 1×PBS before being plated out at 2×10^5 cells/well in assay media (RPMI 1640 plus 10% fetal bovine serum) in 96-well, round-bottom tissue culture plates. Total human PBMC (peripheral blood mononuclear cells) were thawed from a frozen vial collected from a leukapherisis donation and washed two times with 1×PBS before being plated out at 10^6 cells/well in assay media in 96-well, round-bottom tissue culture plates. […] Following pre-incubation, treatments were added to the plates containing the cells and incubated together at 37° C. for 15 minutes.
Following incubation, cells were washed with ice-cold wash buffer (BIO-PLEX Cell Lysis Kit, BIO-RAD Laboratories, Hercules, Calif.) and put on ice to stop the reaction according to manufacturer's instructions. […]
Capture beads (BIO-PLEX Phospho-Stat3 Assay, BIO-RAD Laboratories) were combined with 50 μL of 1:1 diluted lysates and added to a 96-well filter plate according to manufacture's instructions (BIO-PLEX Phosphoprotein Detection Kit, BIO-RAD Laboratories). […] After the final wash, beads were resuspended in 125 μL/well of bead suspension buffer, shaken for 30 seconds, and read on an array reader (BIO-PLEX, BIO-RAD Laboratories) according to the manufacture's instructions. Data were analyzed using analytical softward (BIO-PLEX MANAGER 3.0, BIO-RAD Laboratories). […]

In general, IC50 refers to the concentration that gives 50% inhibition. With “human IL-27RA-Fc5: human IL27RA extracellular domain (amino acids 1 to 512 of SEQ ID NO:5) fused to Fc5, effector minus human gamma1 Fc; SEQ ID NO:3”, in test [1], the ka stood at 1e+07 M⁻¹ s⁻¹ and the kd came out at 0.0019 s⁻¹. Besides, the IC50 with muIL-27 came out at 2.97 nM.
